Tests used:
[1] = target: T1, recombinant human IL-33 protein (residues 112 to 270) (ILC0701, ATGen Co. Ltd) (human, UniProt O95760 112-270); assay: cell-based or functional assay
T1 sequence: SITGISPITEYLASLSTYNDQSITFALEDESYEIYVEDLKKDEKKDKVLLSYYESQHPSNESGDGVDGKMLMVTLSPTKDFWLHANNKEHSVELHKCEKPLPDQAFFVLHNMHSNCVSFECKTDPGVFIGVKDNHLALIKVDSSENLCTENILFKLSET

[2] = target: T2, 6His-AviTag-linked cynomolgus monkey IL-33 (residues 112 to 269) (cynomolgus monkey, UniProt O95760 112-269 (human entry), biotin on the AviTag portion (BirA) in the SPR of Example 7; used without biotinylation in Example 10); assay: cell-based or functional assay
T2 chain: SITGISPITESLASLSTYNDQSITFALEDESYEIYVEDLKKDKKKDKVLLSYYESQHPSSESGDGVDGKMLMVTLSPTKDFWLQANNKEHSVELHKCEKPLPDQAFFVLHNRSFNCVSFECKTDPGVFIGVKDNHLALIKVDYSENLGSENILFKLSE

[3] = target: T1, recombinant human IL-33 protein …; assay: KinExA in PBS, neutral-purified IgG
Procedure: Each test antibody (IgG) (“antibody (IgG)” indicates an antibody having a molecular form of IgG; hereinafter, the same representation is used) was analyzed to confirm the affinity with the human IL-33 protein by measuring dissociation constant (Kd) between each test antibody and the human IL-33 protein in PBS by kinetic exclusion assay (KinExA) (KinExA3200, available from Sapidyne Instruments, Inc.). Mixture samples of a test antibody and a human IL-33 protein (ILC0701, available from ATGen Co. Ltd) were prepared. The human IL-33 protein was titrated to a constant concentration of test antibody (final concentration: several tens of pM to several hundreds of pM) over a wide concentration range of the human IL-33 protein (so that it covered the concentrations of the human IL-33 protein resulting from 12-step serial doubling dilutions, i.e. one- to 2048-fold, with the upper limit of final concentration set to several nM to several tens of nM). The mixture samples were incubated at a room temperature until the antigen-antibody reaction reached equilibrium. After the reaction reached equilibrium, the percentage of free anti-IL-33 antibody in each sample was analyzed using KinExA3200. The values of Kd were calculated by fitting the plot of percentages of anti-IL-33 antibody not bound to the human IL-33 protein (vertical axis) and concentrations of antigen (horizontal axis) to a theoretical formula, using a KinExA data analysis program (KinExA Pro Software v3.5.3, available from Sapidyne Instruments, Inc.). Beads for capturing the anti-IL-33 antibody were prepared by suspending 50 mg of Azlactone beads (Sapidyne) in 1 mL of coating solution (10 μg/mL human IL-33 protein (ILC0701, available from ATGen Co. Ltd), 50 mM sodium carbonate at pH of 9.6) and incubating the solution at a room temperature for one hour. The antibody for detection used was anti-human F(ab)′2-DyLight649 (Jackson, 309-495-006).

[4] = target: T1, recombinant human IL-33 protein …; assay: SPR (Biacore T200), human IL-33 (ILC0701) immobilized on CM5, Calibration Free Concentration Analysis of the preserved antibody against a control-preserved sample
Procedure: Each alkaline-purified antibody was dissolved in a citrate buffer (50 mM citric acid; 150 mM NaCl (pH: 6.3)) at a concentration of about 10 mg/mL, and was preserved at a temperature of 40° C. for four weeks, to evaluate the preservation stability of each test antibody (IgG). For evaluation of the monomer purity of each antibody after the preservation, monomer purity was measured by size exclusion chromatography analysis (SEC) and microchip capillary SDS electrophoresis (mCE-SDS), and antigen-binding activity was measured by surface plasmon resonance.
In order to confirm the presence of the antigen-binding ability after the preservation, the antigen-binding activity was measured with a surface plasmon resonance system, Biacore T200 (available from GE Healthcare). A human IL-33 protein (ILC0701, available from ATGen Co. Ltd) was immobilized onto a Sensor Chip CM5 (GE Healthcare) (the amount of immobilized protein was about 3000 to 6000 RU) with Amine Coupling Kit (GE Healthcare). Each preserved antibody solution was then diluted to 10-fold with a citric buffer (50 mM citric acid, 150 mM NaCl (pH: 6.3)), and the resulting solution was analyzed to measure the total protein concentration in the solution, using a microvolume spectrophotometer, Astragene II (Astranet Systems, Ltd.) (protein concentration: about 1 mg/mL). The antibody solution after the measurement of the total protein concentration was diluted to 1000-fold with HBS-EP buffer (10 mM HEPES, 150 mM NaCl, 3 mM EDTA, 0.05% (v/v) Surfactant P20 (at pH of 7.4)). The analyte was thereby prepared. The measurement temperature was 25° C. Each analyte was added for 36 seconds at two flow rates of 5 μL/min and 100 μL/min to obtain sensorgrams of the association phase. The sensorgrams were then analyzed by Calibration Free Concentration Analysis using a data analysis program (GE Healthcare, Biacore T200 Evaluation Software v1.0) to determine the concentration of the antibody having antigen-binding activity. As control, each test antibody after preservation at a temperature of 4° C. for four weeks was also analyzed to confirm the antigen-binding activity, to calculate the ratio of antigen-binding activity of each test antibody after the preservation at a temperature of 40° C. for four weeks.

B1: A10-1C04 (IgG) (antibody, V domains shown)
VH: EVQLLESGGGLVQPGGSLRLSCAASGFTFSDYYMNWVRQAPGKGLEWVSSISRYSSYIYYADSVKGRFTISRDNSKNTLYLQMNSLRAEDTAVYYCARDIGGMDVWGQGTLVTVSS
VL: QSVLTQPPSASGTPGQRVTISCTGSSSNIGAVYDVHWYQQLPGTAPKLLIYRNNQRPSGVPDRFSGSKSGTSASLAISGLRSEDEADYYCQTYDSSRWVFGGGTKLTVL
notes: tested as neutral-purified and as alkaline-purified antibody; also called V1; IGN1
[1]
  IC50 of inhibition of IL-6 production by HUVEC (alkaline-purified IgG, human IL-33 100 ng/mL): 0.35 µg/mL
  inhibition of IFN-γ production by human PBMC (alkaline-purified IgG 10 ug/mL, IL-33 10 ng/mL, IL-12 10 ng/mL): 96.9%
  inhibition of production of IL-5 and IL-13 by KU-812 cells (alkaline-purified IgG 1 ug/mL; IL-33 3 ng/mL with IL-3 and C5a): ≥ 50%
  percentage of inhibition (%) of IL-6 production by HUVEC (neutral-purified IgG 1 ug/mL, IL-33 100 ng/mL): 67%
[2]
  IC50 of inhibition of IL-6 production by HUVEC (alkaline-purified IgG, cynomolgus monkey IL-33 100 ng/mL, not biotinylated): 0.43 µg/mL
[3]
  Kd: 0.166 nM
[4]
  % Active IgG (antigen binding activity after preservation at 40 C for 4 W): 99.3%

Reference: patent publication US20240002495A1 (MITSUBISHI TANABE PHARMA, published 2024)
